pKd: −log10 of the molar value.
Key:
[1] = biological target: A/Japan/305/1957 (H2N2) hemagglutinin ectodomain (influenza A virus A/Japan/305/1957 (H2N2)); assay: negative-stain EM, single-particle 3D reconstruction
[2] = biological target: A/Hong Kong/1/1968 (H3N2) hemagglutinin ectodomain, biotinylated (influenza A virus A/Hong Kong/1/1968 (H3N2)); assay: BLI
[3] = biological target: A/Hong Kong/1/1968 (H3N2) hemagglutinin ectodomain, biotinylated (influenza A virus A/Hong Kong/1/1968 (H3N2)); assay: ITC
[4] = biological target: A/Hong Kong/1/1968 (H3N2) hemagglutinin ectodomain, biotinylated (influenza A virus A/Hong Kong/1/1968 (H3N2)); assay: BLI; remark: listed apart in the source
[5] = biological target: hemagglutinin of A/Brisbane/59/2007 (H1N1) (influenza A virus A/Brisbane/59/2007 (H1N1))
[6] = biological target: hemagglutinin of A/Virginia/670/1987 (H1N1) (influenza A virus A/Virginia/670/1987 (H1N1))
[7] = biological target: hemagglutinin of A/Hong Kong/1073/1999 (H9N2) (influenza A virus A/Hong Kong/1073/1999 (H9N2))
[8] = biological target: hemagglutinin of A/California/04/2009 (H1N1) (influenza A virus A/California/04/2009 (H1N1)) (UniProt C3W5S1)
[9] = biological target: hemagglutinin of A/Guiyang/1/1957 (H2N2) (influenza A virus A/Guiyang/1/1957 (H2N2))
[10] = biological target: hemagglutinin of A/Memphis/3/2008 (H1N1) (influenza A virus A/Memphis/3/2008 (H1N1))
[11] = biological target: A/Vietnam/1203/2004 (H5N1) hemagglutinin ectodomain (influenza A virus A/Vietnam/1203/2004 (H5N1))

## C05 Fab (Lys-C digestion of IgG)
[1]
  stoichiometry N: 3

## C05 Fab (recombinant, for binding studies)
[2]
  pKd: 6.30
[3]
  pKd: 7.00
[4]
  pKd: 6.37

## C05 IgG (antibody)
[5]
  MIC, hemagglutination inhibition (HAI): 1.56 mg/L
[6]
  MIC, hemagglutination inhibition (HAI): > 100 mg/L
[7]
  MIC, microneutralization (MN): 90 mg/L
[8]
  MIC, hemagglutination inhibition (HAI): > 100 mg/L
[9]
  MIC, microneutralization (MN): 18 mg/L
[10]
  MIC, hemagglutination inhibition (HAI): < 2.3 mg/L
[11]
  MIC, hemagglutination inhibition (HAI): > 100 mg/L
